# Source: patent US20210063414A1, “METHODS FOR PREVENTING AND/OR TREATING BONE LOSS CONDITIONS BY MODULATING IRISIN” (Dana-Farber Cancer Institute, Inc., priority 2018, published 2021)
# T1: MLO-Y4 cell surface proteins (Mus musculus, UniProt Q9D051)
# T1 construct: endogenous in cells; host or cells: MLO-Y4
# T1 sequence (Q9D051 31-359): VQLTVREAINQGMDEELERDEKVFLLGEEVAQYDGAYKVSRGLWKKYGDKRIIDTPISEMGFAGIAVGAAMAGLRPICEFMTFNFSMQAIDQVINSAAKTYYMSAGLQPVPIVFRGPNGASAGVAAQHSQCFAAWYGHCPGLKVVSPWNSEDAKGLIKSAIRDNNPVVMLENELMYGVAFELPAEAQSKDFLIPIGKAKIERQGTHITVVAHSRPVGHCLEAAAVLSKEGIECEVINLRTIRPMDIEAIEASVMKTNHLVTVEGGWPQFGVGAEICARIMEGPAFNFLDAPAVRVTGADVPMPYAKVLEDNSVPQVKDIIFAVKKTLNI
# T2: MLO-Y4 cell surface proteins (Mus musculus, UniProt P55292)
# T2 construct: endogenous in cells; host or cells: MLO-Y4
# T2 sequence (P55292 136-902): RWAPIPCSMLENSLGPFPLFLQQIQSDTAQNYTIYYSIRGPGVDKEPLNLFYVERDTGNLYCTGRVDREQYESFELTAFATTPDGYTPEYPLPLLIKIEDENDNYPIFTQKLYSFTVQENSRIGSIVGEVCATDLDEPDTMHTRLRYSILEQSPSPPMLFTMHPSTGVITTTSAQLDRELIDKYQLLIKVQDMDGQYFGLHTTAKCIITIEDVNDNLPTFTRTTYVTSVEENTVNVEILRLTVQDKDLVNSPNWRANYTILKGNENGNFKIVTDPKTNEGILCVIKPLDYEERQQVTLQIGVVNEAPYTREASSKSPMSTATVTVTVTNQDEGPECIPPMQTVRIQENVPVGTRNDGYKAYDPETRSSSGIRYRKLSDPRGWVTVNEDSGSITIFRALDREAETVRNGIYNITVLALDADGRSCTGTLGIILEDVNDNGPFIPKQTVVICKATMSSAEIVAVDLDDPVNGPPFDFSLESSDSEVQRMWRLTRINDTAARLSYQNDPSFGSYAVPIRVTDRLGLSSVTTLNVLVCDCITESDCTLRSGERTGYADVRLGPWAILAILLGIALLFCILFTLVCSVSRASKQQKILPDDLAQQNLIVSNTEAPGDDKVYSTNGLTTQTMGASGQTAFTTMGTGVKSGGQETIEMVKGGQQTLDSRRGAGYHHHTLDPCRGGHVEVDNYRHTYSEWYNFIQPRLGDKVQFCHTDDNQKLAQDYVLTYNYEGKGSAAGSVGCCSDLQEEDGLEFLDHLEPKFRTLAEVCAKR
# B1: irisin: secreted cleaved form of FNDC5; recombinant human/mouse irisin with C-terminal his tag produced in HEK293 cells (protein)
# chain: DSPSAPVNVTVRHLKANSAVVSWDVLEDEVVIGFAISQQKKDVRMLRFIQEVNTTTRSCALWDLEEDTEYIVHVQAISIQGQSPASEPVLFKTPREAEKMASKNKDEVTMKE
# modifications: left off: small tags and cut ends
# notes: secreted cleaved form of FNDC5; recombinant human/mouse irisin with C-terminal his tag produced in HEK293 cells
# Legend:
# Assay in all cases: Crosslinking/co-immunoprecipitation/mass spectrometry (TMT quantitative proteomics) to identify irisin receptors
# Type in all cases: binding
# [1] = target: T1, MLO-Y4 cell surface proteins; conditions: co-precipitated protein Pdhb (ODPB_MOUSE)
# Method in brief: (§1)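 Mouse MLO-Y4 cells were switched to serum-free FreeStyle medium for 4 h, chilled, then exposed to 10 nM His-tagged irisin (or adipsin as control) for 20 min. Cells were crosslinked with 1.5 mM DTSSP (30 min, ice), and bound proteins were pulled down on Ni-NTA and eluted with 250 mM imidazole. Eluates were separated by SDS-PAGE, trypsin-digested in gel, TMT 6-plex labelled and quantified by MS3-based LC-MS/MS on an Orbitrap Fusion Lumos.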
# [2] = target: T2, MLO-Y4 cell surface proteins; conditions: co-precipitated protein Dsc2 (DSC2_MOUSE)
# Method in brief: as §1
# [3] = target: T3, MLO-Y4 cell surface proteins (Mus musculus, UniProt P62737); conditions: co-precipitated protein Acta2 (ACTA_MOUSE)
# T3 construct: endogenous in cells; host or cells: MLO-Y4
# Method in brief: as §1
# [4] = target: T4, MLO-Y4 cell surface proteins (Mus musculus, UniProt Q8VHN7); conditions: co-precipitated protein Gpr98 (GPR98_MOUSE)
# T4 construct: endogenous in cells; host or cells: MLO-Y4
# Method in brief: as §1
molecule,measurement,setting,value
B1,TMT signal-to-noise ratio,[1],123.1
same,irisin/adipsin TMT signal-to-noise ratio,[1],0.337
same,TMT signal-to-noise ratio,[2],3.51
same,irisin/adipsin TMT signal-to-noise ratio,[2],0.037
same,TMT signal-to-noise ratio,[3],107.601
same,irisin/adipsin TMT signal-to-noise ratio,[3],0.298
same,TMT signal-to-noise ratio,[4],249.388
same,irisin/adipsin TMT signal-to-noise ratio,[4],0.403
